Measured values from article PMC10432815.

B1: mouse Gα14 (natural protein)
chain: MAGCCCLSAEEKESQRISAEIERQLRRDKKDARRELKLLLLGTGESGKSTFIKQMRIIHGSGYSDEDRKGFTKLVYQNIFTAMQAMIRAMDTLRIQYMCEQNKENAQIIREVEVDKVTALSRDQVAAIKQLWLDPGIQECYDRRREYQLSDSAKYYLTDIERIAMPSFVPTQQDVLRVRVPTTGIIEYPFDLENIIFRMVDVGGQRSERRKWIHCFESVTSIIFLVALSEYDQVLAECDNENRMEESKALFRTIITYPWFLNSSVILFLNKKDLLEEKIMYSHLISYFPEYTGPKQDVKAARDFILKLYQDQNPDKEKVIYSHFTCATDTENIRFVFAAVKDTILQLNLREFNLV

Tests used:
medaka Opn5m (medaka) [1] = target: medaka Opn5m (medaka)
medaka Opn5m (medaka) [2] = target: medaka Opn5m (medaka); remark: listed apart in the source

Molecule | relative aequorin luminescence (calcium response) after UV light, 293TΔGQ cells cotransfected with OlOpn5m and medaka Gα: against OlGαq, OlGα11a and OlGα11b (medaka Opn5m (medaka) [1]) | relative aequorin luminescence (calcium response) after UV light, ATR-reconstituted OlOpn5m in 293TΔGQ cells: mGα14 against mGαq (medaka Opn5m (medaka) [2])
medaka Gα11c (natural protein) | 24 fold | 
medaka Gα14a (natural protein) | 24 fold | 
B1 |  | 27 fold
